{"source": "paper PMC5053157", "about": "“Crystal structure of yeast monothiol glutaredoxin Grx6 in complex with a glutathione-coordinated [2Fe–2S] cluster” (Acta Crystallographica. Section F, Structural Biology …, 2016)", "molecular_target": "the molecule itself", "assay": "SEC; HiLoad 16/60 Superdex 75; 20 mM NaCl, 50 mM Tris-HCl pH 8.0, 2 mM EDTA, 10 mM GSH; apparent molecular masses", "note": "Where “and” joins values, the source holds several entries; their conditions need not be identical. Equal entries are not always repeated.", "data": [{"protein": "Saccharomyces cerevisiae glutaredoxin Grx6 without the signal peptide (residues Lys37-Asn231) (enzyme) KEETSKAFSTNMDNMAGGSSREYAAMPTSTTNKGSSEVDEEINEIKQKVGLQQPIASVDDSLSAIKNDKGSRITKAFNVQKEYSLILDLSPIIIFSKSTCSYSKGMKELLENEYQFIPNYYIIELDKHGHGEELQEYIKLVTGRGTVPNLLVNGVSRGGNEEIKKLHTQGKLLESLQVWSDGKFSVEQREKPSNNLEHHHHHH", "values": [{"measurement": "stoichiometry N", "result": "2 and 4"}]}]}
